Data: patent publication US20060263802A1 (CRUCELL HOLLAND B V, published 2006)

Tests used:
Test in all cases: PEPSCAN ELISA, looped 15-mer, 10 ug/ml
[1] = molecular target: looped peptide … (rabies virus strain ERA)
[2] = molecular target: looped peptide … (rabies virus strain ERA); remark: listed apart in the source
[3] = molecular target: looped peptide … (rabies virus strain ERA); remark: listed apart in the source
[4] = molecular target: looped peptide … (rabies virus strain ERA); remark: listed apart in the source
[5] = molecular target: looped peptide … (rabies virus strain ERA); remark: listed apart in the source
[6] = molecular target: looped peptide … (rabies virus strain ERA); remark: listed apart in the source
[7] = molecular target: looped peptide … (rabies virus strain ERA); remark: listed apart in the source
[8] = molecular target: looped peptide … (rabies virus strain ERA); remark: listed apart in the source
[9] = molecular target: looped peptide … (rabies virus strain ERA); remark: listed apart in the source
[10] = molecular target: looped peptide … (rabies virus strain ERA); remark: listed apart in the source
[11] = molecular target: looped peptide … (rabies virus strain ERA); remark: listed apart in the source
[12] = molecular target: looped peptide … (rabies virus strain ERA); remark: listed apart in the source
[13] = molecular target: looped peptide … (rabies virus strain ERA); remark: listed apart in the source
[14] = molecular target: looped peptide … (rabies virus strain ERA); remark: listed apart in the source
[15] = molecular target: looped peptide … (rabies virus strain ERA); remark: listed apart in the source
[16] = molecular target: looped peptide … (rabies virus strain ERA); remark: listed apart in the source
[17] = molecular target: looped peptide … (rabies virus strain ERA); remark: listed apart in the source
[18] = molecular target: looped peptide … (rabies virus strain ERA); remark: listed apart in the source
[19] = molecular target: looped peptide … (rabies virus strain ERA); remark: listed apart in the source
[20] = molecular target: looped peptide … (rabies virus strain ERA); remark: listed apart in the source
[21] = molecular target: looped peptide … (rabies virus strain ERA); remark: listed apart in the source
[22] = molecular target: looped peptide … (rabies virus strain ERA); remark: listed apart in the source
[23] = molecular target: looped peptide … (rabies virus strain ERA); remark: listed apart in the source
[24] = molecular target: looped peptide … (rabies virus strain ERA); remark: listed apart in the source
[25] = molecular target: looped peptide … (rabies virus strain ERA); remark: listed apart in the source
[26] = molecular target: looped peptide … (rabies virus strain ERA); remark: listed apart in the source
[27] = molecular target: looped peptide … (rabies virus strain ERA); remark: listed apart in the source
[28] = molecular target: looped peptide … (rabies virus strain ERA); remark: listed apart in the source
[29] = molecular target: looped peptide … (rabies virus strain ERA); remark: listed apart in the source
[30] = molecular target: looped peptide … (rabies virus strain ERA); remark: listed apart in the source
[31] = molecular target: looped peptide … (rabies virus strain ERA); remark: listed apart in the source
[32] = molecular target: looped peptide … (rabies virus strain ERA); remark: listed apart in the source
[33] = molecular target: looped peptide … (rabies virus strain ERA); remark: listed apart in the source
[34] = molecular target: looped peptide … (rabies virus strain ERA); remark: listed apart in the source
[35] = molecular target: looped peptide … (rabies virus strain ERA); remark: listed apart in the source
[36] = molecular target: looped peptide … (rabies virus strain ERA); remark: listed apart in the source
[37] = molecular target: looped peptide … (rabies virus strain ERA); remark: listed apart in the source
[38] = molecular target: looped peptide … (rabies virus strain ERA); remark: listed apart in the source
[39] = molecular target: looped peptide … (rabies virus strain ERA); remark: listed apart in the source
[40] = molecular target: looped peptide … (rabies virus strain ERA); remark: listed apart in the source
[41] = molecular target: looped peptide … (rabies virus strain ERA); remark: listed apart in the source
[42] = molecular target: looped peptide … (rabies virus strain ERA); remark: listed apart in the source
[43] = molecular target: looped peptide … (rabies virus strain ERA); remark: listed apart in the source
[44] = molecular target: looped peptide … (rabies virus strain ERA); remark: listed apart in the source
[45] = molecular target: looped peptide … (rabies virus strain ERA); remark: listed apart in the source
[46] = molecular target: looped peptide … (rabies virus strain ERA); remark: listed apart in the source
[47] = molecular target: looped peptide … (rabies virus strain ERA); remark: listed apart in the source
[48] = molecular target: looped peptide … (rabies virus strain ERA); remark: listed apart in the source
[49] = molecular target: looped peptide … (rabies virus strain ERA); remark: listed apart in the source
[50] = molecular target: looped peptide … (rabies virus strain ERA); remark: listed apart in the source
[51] = molecular target: looped peptide … (rabies virus strain ERA); remark: listed apart in the source
[52] = molecular target: looped peptide … (rabies virus strain ERA); remark: listed apart in the source
[53] = molecular target: looped peptide … (rabies virus strain ERA); remark: listed apart in the source
[54] = molecular target: looped peptide … (rabies virus strain ERA); remark: listed apart in the source
[55] = molecular target: looped peptide … (rabies virus strain ERA); remark: listed apart in the source
[56] = molecular target: looped peptide … (rabies virus strain ERA); remark: listed apart in the source
[57] = molecular target: looped peptide … (rabies virus strain ERA); remark: listed apart in the source
[58] = molecular target: looped peptide … (rabies virus strain ERA); remark: listed apart in the source
[59] = molecular target: looped peptide … (rabies virus strain ERA); remark: listed apart in the source
[60] = molecular target: looped peptide … (rabies virus strain ERA); remark: listed apart in the source
[61] = molecular target: looped peptide … (rabies virus strain ERA); remark: listed apart in the source
[62] = molecular target: looped peptide … (rabies virus strain ERA); remark: listed apart in the source
[63] = molecular target: looped peptide … (rabies virus strain ERA); remark: listed apart in the source
[64] = molecular target: looped peptide … (rabies virus strain ERA); remark: listed apart in the source
[65] = molecular target: looped peptide … (rabies virus strain ERA); remark: listed apart in the source
[66] = molecular target: looped peptide … (rabies virus strain ERA); remark: listed apart in the source
[67] = molecular target: looped peptide … (rabies virus strain ERA); remark: listed apart in the source
[68] = molecular target: looped peptide … (rabies virus strain ERA); remark: listed apart in the source
[69] = molecular target: looped peptide … (rabies virus strain ERA); remark: listed apart in the source
[70] = molecular target: looped peptide … (rabies virus strain ERA); remark: listed apart in the source
[71] = molecular target: looped peptide … (rabies virus strain ERA); remark: listed apart in the source
[72] = molecular target: looped peptide … (rabies virus strain ERA); remark: listed apart in the source
[73] = molecular target: looped peptide … (rabies virus strain ERA); remark: listed apart in the source
[74] = molecular target: looped peptide … (rabies virus strain ERA); remark: listed apart in the source
[75] = molecular target: looped peptide … (rabies virus strain ERA); remark: listed apart in the source
[76] = molecular target: looped peptide … (rabies virus strain ERA); remark: listed apart in the source
[77] = molecular target: looped peptide … (rabies virus strain ERA); remark: listed apart in the source
[78] = molecular target: looped peptide … (rabies virus strain ERA); remark: listed apart in the source
[79] = molecular target: looped peptide … (rabies virus strain ERA); remark: listed apart in the source
[80] = molecular target: looped peptide … (rabies virus strain ERA); remark: listed apart in the source
[81] = molecular target: looped peptide … (rabies virus strain ERA); remark: listed apart in the source
[82] = molecular target: looped peptide … (rabies virus strain ERA); remark: listed apart in the source
[83] = molecular target: looped peptide … (rabies virus strain ERA); remark: listed apart in the source
[84] = molecular target: looped peptide … (rabies virus strain ERA); remark: listed apart in the source
[85] = molecular target: looped peptide … (rabies virus strain ERA); remark: listed apart in the source
[86] = molecular target: looped peptide … (rabies virus strain ERA); remark: listed apart in the source
[87] = molecular target: looped peptide … (rabies virus strain ERA); remark: listed apart in the source
[88] = molecular target: looped peptide … (rabies virus strain ERA); remark: listed apart in the source
[89] = molecular target: looped peptide … (rabies virus strain ERA); remark: listed apart in the source
[90] = molecular target: looped peptide … (rabies virus strain ERA); remark: listed apart in the source
[91] = molecular target: looped peptide … (rabies virus strain ERA); remark: listed apart in the source
[92] = molecular target: looped peptide … (rabies virus strain ERA); remark: listed apart in the source
[93] = molecular target: looped peptide … (rabies virus strain ERA); remark: listed apart in the source
[94] = molecular target: looped peptide … (rabies virus strain ERA); remark: listed apart in the source
[95] = molecular target: looped peptide … (rabies virus strain ERA); remark: listed apart in the source
[96] = molecular target: looped peptide … (rabies virus strain ERA); remark: listed apart in the source
[97] = molecular target: looped peptide … (rabies virus strain ERA); remark: listed apart in the source
[98] = molecular target: looped peptide … (rabies virus strain ERA); remark: listed apart in the source

B1: human monoclonal antibody CRJA (antibody, V domains shown)
VH: EVQLLESGGGLVQPGGSLRLSCAASGFTFSNYAMSWVRQAPGKGLEWVSAISASGHSTYLADSVKGRFTISRDNSKNTLYLQMNSLRAEDTAVYYCAKDREVTMIVVLNGGFDYWGQGTRVTVSS
VL: EIVLTQSPATLSLSPGERATLACRASQTASRYLAWYQQKPGQAPRLLIYDTSNRATGIPARFSGSGSGTDFTLSISSLEPEDFAVYYCQQRFNWPWTFGQGTKVEFK
OD value [1]: 118
OD value [2]: 113
OD value [3]: 113
OD value [4]: 59
OD value [5]: 96
OD value [6]: 93
OD value [7]: 98
OD value [8]: 71
OD value [9]: 90
OD value [10]: 94
OD value [11]: 92
OD value [12]: 129
OD value [13]: 100
OD value [14]: 51
OD value [15]: 100
OD value [16]: 92
OD value [17]: 45
OD value [18]: 72
OD value [19]: 108
OD value [20]: 105
OD value [21]: 100
OD value [22]: 96
OD value [23]: 120
OD value [24]: 110
OD value [25]: 88
OD value [26]: 104
OD value [27]: 112
OD value [28]: 75
OD value [29]: 84
OD value [30]: 51
OD value [31]: 92
OD value [32]: 104
OD value [33]: 88
OD value [34]: 96
OD value [35]: 82
OD value [36]: 78
OD value [37]: 83
OD value [38]: 84
OD value [39]: 73
OD value [40]: 87
OD value [41]: 79
OD value [42]: 66
OD value [43]: 64
OD value [44]: 50
OD value [45]: 90
OD value [46]: 113
OD value [47]: 104
OD value [48]: 43
OD value [49]: 88
OD value [50]: 55
OD value [51]: 110
OD value [52]: 90
OD value [53]: 108
OD value [54]: 93
OD value [55]: 93
OD value [56]: 90
OD value [57]: 41
OD value [58]: 123
OD value [59]: 104
OD value [60]: 113
OD value [61]: 80
OD value [62]: 98
OD value [63]: 86
OD value [64]: 90
OD value [65]: 57
OD value [66]: 71
OD value [67]: 90
OD value [68]: 90
OD value [69]: 104
OD value [70]: 110
OD value [71]: 93
OD value [72]: 100
OD value [73]: 110
OD value [74]: 92
OD value [75]: 86
OD value [76]: 96
OD value [77]: 96
OD value [78]: 92
OD value [79]: 92
OD value [80]: 69
OD value [81]: 100
OD value [82]: 93
OD value [83]: 62
OD value [84]: 100
OD value [85]: 88
OD value [86]: 56
OD value [87]: 72
OD value [88]: 94
OD value [89]: 125
OD value [90]: 90
OD value [91]: 46
OD value [92]: 82
OD value [93]: 71
OD value [94]: 49
OD value [95]: 49
OD value [96]: 88
OD value [97]: 74
OD value [98]: 90
